Patent publication US20110217282, “Novel Toxin-Antitoxin System” (UNIVERSITY OF MEDICINE AND DENTISTRY OF NEW JERSEY, published 2011)

Experiments:
MqsR = MqsR (Escherichia coli, UniProt Q46865 SEQ:1-98); assay: EMSA; no binding up to 80 nM; details: chain copies: 2 inferred; label: 5'-32P
YgiT [1] = target: T1, YgiT (Escherichia coli, UniProt Q46864 SEQ:1-131); assay: EMSA; shift at 10 nM and higher, none at 5 nM; 50 mM Tris-HCl pH 7.2, 50 mM KCl, poly(dI-dC), 4 C; details: tags: C-terminal His; chain copies: 2 inferred; label: 5'-32P
T1 sequence (Q46864 whole entry): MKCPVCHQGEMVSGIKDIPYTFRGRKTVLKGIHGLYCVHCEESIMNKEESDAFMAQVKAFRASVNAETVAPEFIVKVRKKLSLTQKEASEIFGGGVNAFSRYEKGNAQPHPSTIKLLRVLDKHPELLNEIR

MqsR-YgiT complex [2] = target: T2, MqsR-YgiT complex (Escherichia coli, UniProt Q46865;Q46864 SEQ:1-98,SEQ:1-131); assay: EMSA; shift from 5 nM; stronger than YgiT alone; MqsR:YgiT 2:1; details: tags: N-terminal His on MqsR; chain copies: 4 MqsR + 2 YgiT inferred; label: 5'-32P
T2 sequence (Q46865 whole entry, chain 1 of 2): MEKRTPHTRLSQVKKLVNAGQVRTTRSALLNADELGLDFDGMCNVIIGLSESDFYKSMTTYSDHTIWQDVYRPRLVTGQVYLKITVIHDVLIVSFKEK
T2 sequence (Q46864 whole entry, chain 2 of 2): as the sequence (Q46864 whole entry) above

MqsR-YgiT complex [3] = target: T2, MqsR-YgiT complex; assay: EMSA; shift from 10 nM; stronger than YgiT alone; MqsR:YgiT 2:1; details: tags: N-terminal His on MqsR; chain copies: 4 MqsR + 2 YgiT inferred; label: 5'-32P
YgiT [4] = target: T1, YgiT; assay: EMSA; shift at 20 nM and higher, none at 5 nM; 50 mM Tris-HCl pH 7.2, 50 mM KCl, poly(dI-dC), 4 C; details: tags: C-terminal His; chain copies: 2 inferred; label: 5'-32P

Sequence of MqsR (Q46865 whole entry): as the sequence (Q46865 whole entry, chain 1 of 2) above

Row | Binder | binding result (MqsR) | binding result (YgiT [1]) | binding result (MqsR-YgiT complex [2]) | binding result (MqsR-YgiT complex [3]) | binding result (YgiT [4])
1 | mqsR-ygiT palindrome 1 (dsDNA) DNA 1: CCCCTAACTAACCTTTTAGGTGCTTTTCCCC DNA 2: GGGGAAAAGCACCTAAAAGGTTAGTTAGGGG | no binding | binds | binds |  | 
2 | mqsR-ygiT palindrome 2 (dsDNA) DNA 1: CCCAATTAACCTTTTAGGTTATAACCC DNA 2: GGGTTATAACCTAAAAGGTTAATTGGG | no binding |  |  | binds | binds
